Target: the molecule itself
Assay: cryo-EM structure; RbcL-Raf1 supercomplex co-expressed with GroES/EL in E. coli, purified by Ni-IMAC and Superdex 200; 1.2 mg/mL on Quantifoil grids; 200 kV Tecnai F20; 16,022 particles; 4.28 Å

B1: Rubisco accumulation factor 1 (Raf1) (Synechococcus elongatus PCC7942), recombinant (natural protein, UniProt Q31Q05 1-356, looked up)
chain: MREFTPTTLSEEERQELLGQLRRKEGRWLAWARACQTLLKNGLNPQTLFEATGFEPIQQNQITVAMQVYDSILRQDPPAHVRETYQEWGSDLLYELRELDQEQRSLCAQLALERKLDADQIREVAKATKDFCRLPKQPENFDRHPGDAVAHQCWRLAQERTDLTERSRLIARGLQFAQSAGARALIEALLLDLSGVPSRKPPMLPIYRLETEEDLPRLLPFAGTLPLSSSQIEAIAAVEAEGPFGLVSSPQGQQWLALPGWQAILTAEDPIACLEQIDRLPNAPEGPTEAVVLVVDRADRDWDADHFFLVEQAEGARIQWSPSAIAAPILGRLVLILRPKRVLDEAAIATPWQFEE
notes: Raf1, Rubisco accumulation (assembly) factor 1, Synechococcus elongatus PCC7942, gene synpcc7942_0833 amplified from genomic DNA; N-terminal α-helical domain (Raf1α), flexible linker, C-terminal β-sheet dimerization domain (Raf1β); Only the Raf1α domains are modelled in PDB 6SMH; Raf1β could not be resolved; Four Raf1 dimers (eight chains) sit on one RbcL8 core; also called Rubisco assembly …
stoichiometry N: 2

B2: Rubisco large subunit RbcL (Synechococcus elongatus PCC7942), recombinant, in the RbcL-Raf1 supercomplex (natural protein, UniProt Q31NB3 1-472, looked up)
chain: MPKTQSAAGYKAGVKDYKLTYYTPDYTPKDTDLLAAFRFSPQPGVPADEAGAAIAAESSTGTWTTVWTDLLTDMDRYKGKCYHIEPVQGEENSYFAFIAYPLDLFEEGSVTNILTSIVGNVFGFKAIRSLRLEDIRFPVALVKTFQGPPHGIQVERDLLNKYGRPMLGCTIKPKLGLSAKNYGRAVYECLRGGLDFTKDDENINSQPFQRWRDRFLFVADAIHKSQAETGEIKGHYLNVTAPTCEEMMKRAEFAKELGMPIIMHDFLTAGFTANTTLAKWCRDNGVLLHIHRAMHAVIDRQRNHGIHFRVLAKCLRLSGGDHLHSGTVVGKLEGDKASTLGFVDLMREDHIEADRSRGVFFTQDWASMPGVLPVASGGIHVWHMPALVEIFGDDSVLQFGGGTLGHPWGNAPGATANRVALEACVQARNEGRDLYREGGDILREAGKWSPELAAALDLWKEIKFEFETMDKL
notes: RbcL, large subunit of ribulose-1,5-bisphosphate carboxylase/oxygenase, Synechococcus elongatus PCC7942, gene synpcc7942_1426 amplified from genomic DNA; The complex was captured on Ni-IMAC as a 'His-fusion complex'; also called RbcL8; RbcL8 core; source: E. coli BL21 DE3, co-expressed with Raf1 (pET19b-RbcL-Raf1) and GroES/EL, purified as a complex (Ni-IMAC, Superdex 200)
stoichiometry N: 8

Reference: article PMC7382273, “Rubisco accumulation factor 1 (Raf1) plays essential roles in mediating Rubisco assembly and carboxysome biogenesis” (Proceedings of the National Academy of Sciences of the …, 2020)
